Among the data in paper PMC4263579 are stoichiometry N values, retold here.

This assay deals with recombinant NS1 protein (dengue virus non-structural 1 protein). Description: native gel or EMSA; Native-PAGE of the recombinant NS1 protein; data not shown. (In EMSA bound probe runs differently from free probe, usually more slowly.)

For orientation: stoichiometry N means a count of units in the complex or per binding partner. Regarding “recombinant NS1 protein (dengue virus non-structural 1 protein)”, the stoichiometry N was determined as 6.
